Here are results for 52 molecules from patent publication US20220402995A1 (TOSOH, published 2022).

Positions count from the first letter of the chain named.

The labels stand for the following.
B1: AAV-binding protein No. 1 (Asn324Asp) (receptor)
chain: MGSAGESVQITLPKDEVQLNAYVLQEPPKGETYTYDWQLITHPRDYSGEMEGKHSQILKLSKLTPGLYEFKVIVEGQNAHGEGYVNVTVKPEPRKNRPPIAIVSPQFQEISLPTTSTVIDGSQSTDDDKIVQYHWEELKGPLREEKISEDTAILKLSKLVPGNYTFSLTVVDSDGATNSTTANLTVNKAVDHHHHHH
B2: AAV-binding protein No. 44 (Gln327Arg, Lys338Arg, Leu348Pro) (receptor)
chain: B1 chain with D15N, Q18R, K29R, L39P
B3: AAV-binding protein No. 19 (Val396Ala) (receptor)
chain: B1 chain with D15N, V87A
B4: AAV-binding protein No. 15 (Leu367Pro) (receptor)
chain: B1 chain with D15N, L58P
B5: AAV-binding protein No. 5 (Asp345Asn) (receptor)
chain: B1 chain with D15N, D36N
B6: AAV-binding protein No. 41 (Glu453Gly, Ser476Arg) (receptor)
chain: B1 chain with D15N, E144G, S167R
B7: AAV-binding protein No. 22 (Leu477Pro) (receptor)
chain: B1 chain with D15N, L168P
B8: AAV-binding protein No. 42 (Ile319Phe, Pro322Leu, Lys448Arg) (receptor)
chain: B1 chain with I10F, P13L, D15N, K139R
B9: AAV-binding protein No. 52 (Leu348Pro, Leu376Pro, Val396Ala) (receptor)
chain: B1 chain with D15N, L39P, L67P, V87A
B10: AAV-binding protein No. 40 (Phe379Ser, Lys455Arg) (receptor)
chain: B1 chain with D15N, F70S, K146R
B11: AAV-binding protein No. 6 (Trp346Leu) (receptor)
chain: B1 chain with D15N, W37L
B12: AAV-binding protein No. 34 (Trp346Arg, Glu458Gly) (receptor)
chain: B1 chain with D15N, W37R, E149G
B13: AAV-binding protein No. 50 (Val332Gln, Tyr342Cys, Val412Ala) (receptor)
chain: B1 chain with D15N, V23Q, Y33C, V103A
B14: AAV-binding protein No. 7 (Leu348Pro) (receptor)
chain: B1 chain with D15N, L39P
B15: AAV-binding protein No. 48 (Ala330Gly, Gln347Pro, Lys371Glu) (receptor)
chain: B1 chain with D15N, A21G, Q38P, K62E
B16: AAV-binding protein No. 54 (His363Leu, Ser364Pro, His389Leu) (receptor)
chain: B1 chain with D15N, H54L, S55P, H80L
B17: AAV-binding protein No. 25 (Asn324Asp, Tyr355His) (receptor)
chain: B1 chain with Y46H
B18: AAV-binding protein No. 12 (Ser356Cys) (receptor)
chain: B1 chain with D15N, S47C
B19: AAV-binding protein No. 8 (His351Leu) (receptor)
chain: B1 chain with D15N, H42L
B20: AAV-binding protein No. 21 (Tyr442Phe) (receptor)
chain: B1 chain with D15N, Y133F
B21: AAV-binding protein No. 10 (Arg353Cys) (receptor)
chain: B1 chain with D15N, R44C
B22: AAV-binding protein No. 35 (Gln347Leu, Thr373Ala) (receptor)
chain: B1 chain with D15N, Q38L, T64A
B23: AAV-binding protein No. 55 (Gln365Arg, Ser370Ala, Glu391Lys) (receptor)
chain: B1 chain with D15N, Q56R, S61A, E82K
B24: AAV-binding protein No. 27 (Tyr331Cys, Leu376Pro) (receptor)
chain: B1 chain with D15N, Y22C, L67P
B25: AAV-binding protein No. 24 (Asn492Asp) (receptor)
chain: B1 chain with D15N, N183D
B26: AAV-binding protein No. 33 (Tyr344His, His363Arg) (receptor)
chain: B1 chain with D15N, Y35H, H54R
B27: AAV-binding protein No. 46 (Asn329Asp, Ile366Thr, Lys368Arg) (receptor)
chain: B1 chain with D15N, N20D, I57T, K59R
B28: AAV-binding protein No. 51 (Leu333Pro, Pro337Leu, Thr350Met) (receptor)
chain: B1 chain with D15N, L24P, P28L, T41M
B29: AAV-binding protein No. 56 (Asn324Ser, Thr341Ala, Leu369Pro, Phe416Ser) (receptor)
chain: B1 chain with D15S, T32A, L60P, F107S
B30: AAV-binding protein No. 4 (Tyr344His) (receptor)
chain: B1 chain with D15N, Y35H
B31: AAV-binding protein No. 13 (Gly357Cys) (receptor)
chain: B1 chain with D15N, G48C
B32: AAV-binding protein No. 18 (Tyr393Cys) (receptor)
chain: B1 chain with D15N, Y84C
B33: AAV-binding protein No. 17 (Phe379Ser) (receptor)
chain: B1 chain with D15N, F70S
B34: AAV-binding protein No. 11 (Tyr355Asn) (receptor)
chain: B1 chain with D15N, Y46N
B35: AAV-binding protein No. 37 (Gln365Arg, His389Gln) (receptor)
chain: B1 chain with D15N, Q56R, H80Q
B36: AAV-binding protein No. 20 (Lys399Glu) (receptor)
chain: B1 chain with D15N, K90E
B37: AAV-binding protein No. 57 (Gln334Arg, Val381Ala, His389Arg, Tyr393Cys) (receptor)
chain: B1 chain with D15N, Q25R, V72A, H80R, Y84C
B38: AAV-binding protein No. 31 (Tyr342His, Ile349Thr) (receptor)
chain: B1 chain with D15N, Y33H, I40T
B39: AAV-binding protein No. 3 (Lys338Glu) (receptor)
chain: B1 chain with D15N, K29E
B40: AAV-binding protein No. 26 (Asn329Tyr, Lys399Arg) (receptor)
chain: B1 chain with D15N, N20Y, K90R
B41: AAV-binding protein No. 39 (Ile366Thr, Gln441Leu) (receptor)
chain: B1 chain with D15N, I57T, Q132L
B42: AAV-binding protein No. 28 (Tyr331Cys, Glu384Gly) (receptor)
chain: B1 chain with D15N, Y22C, E75G
B43: AAV-binding protein No. 2 (Tyr331Cys) (receptor)
chain: B1 chain with D15N, Y22C
B44: AAV-binding protein No. 38 (Gln365Arg, Gln415Leu) (receptor)
chain: B1 chain with D15N, Q56R, Q106L
B45: AAV-binding protein No. 23 (Asn487Asp) (receptor)
chain: B1 chain with D15N, N178D
B46: AAV-binding protein No. 14 (Gln365Arg) (receptor)
chain: B1 chain with D15N, Q56R
B47: AAV-binding protein No. 105 (AVR8g + Arg353Cys) (receptor)
chain: B1 chain with V8D, D15N, Y33C, R44C, K53E, K62N, G81S, K90E, S167R, N178D
B48: AAV-binding protein No. 107 (AVR8g + Ser356Cys) (receptor)
chain: B1 chain with V8D, D15N, Y33C, S47C, K53E, K62N, G81S, K90E, S167R, N178D
B49: AAV-binding protein No. 108 (AVR8g + Met359Leu) (receptor)
chain: B1 chain with V8D, D15N, Y33C, M50L, K53E, K62N, G81S, K90E, S167R, N178D
B50: AAV-binding protein No. 104 (AVR8g + Tyr344Phe) (receptor)
chain: B1 chain with V8D, D15N, Y33C, Y35F, K53E, K62N, G81S, K90E, S167R, N178D
B51: AAV-binding protein No. 103 (AVR8g + Glu340Val) (receptor)
chain: B1 chain with V8D, D15N, E31V, Y33C, K53E, K62N, G81S, K90E, S167R, N178D
B52: AAV-binding protein No. 106 (AVR8g + Tyr355Cys) (receptor)
chain: B1 chain with V8D, D15N, Y33C, Y46C, K53E, K62N, G81S, K90E, S167R, N178D

T1 sequence (P03135 whole entry, chain 1 of 3): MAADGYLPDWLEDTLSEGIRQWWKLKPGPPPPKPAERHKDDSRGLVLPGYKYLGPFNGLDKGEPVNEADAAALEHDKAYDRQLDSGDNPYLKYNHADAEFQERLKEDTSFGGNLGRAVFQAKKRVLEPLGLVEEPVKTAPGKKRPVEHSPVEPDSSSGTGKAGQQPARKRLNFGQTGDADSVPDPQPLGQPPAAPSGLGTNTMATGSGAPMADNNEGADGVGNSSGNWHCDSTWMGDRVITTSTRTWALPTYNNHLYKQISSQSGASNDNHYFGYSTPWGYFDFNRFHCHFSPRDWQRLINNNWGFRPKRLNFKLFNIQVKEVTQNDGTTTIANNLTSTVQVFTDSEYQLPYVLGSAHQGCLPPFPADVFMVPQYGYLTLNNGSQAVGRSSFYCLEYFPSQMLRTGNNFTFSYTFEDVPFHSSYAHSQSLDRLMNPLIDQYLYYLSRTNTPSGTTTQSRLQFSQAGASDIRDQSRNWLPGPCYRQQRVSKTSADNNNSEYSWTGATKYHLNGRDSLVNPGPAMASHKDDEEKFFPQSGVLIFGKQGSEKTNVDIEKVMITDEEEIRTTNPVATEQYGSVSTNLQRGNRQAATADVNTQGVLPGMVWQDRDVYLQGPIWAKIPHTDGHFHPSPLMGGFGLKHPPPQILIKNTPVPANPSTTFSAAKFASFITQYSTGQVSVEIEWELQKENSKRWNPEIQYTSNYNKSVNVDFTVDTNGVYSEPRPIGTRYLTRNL
T1 sequence (P03135 139-735, tags left off, chain 2 of 3): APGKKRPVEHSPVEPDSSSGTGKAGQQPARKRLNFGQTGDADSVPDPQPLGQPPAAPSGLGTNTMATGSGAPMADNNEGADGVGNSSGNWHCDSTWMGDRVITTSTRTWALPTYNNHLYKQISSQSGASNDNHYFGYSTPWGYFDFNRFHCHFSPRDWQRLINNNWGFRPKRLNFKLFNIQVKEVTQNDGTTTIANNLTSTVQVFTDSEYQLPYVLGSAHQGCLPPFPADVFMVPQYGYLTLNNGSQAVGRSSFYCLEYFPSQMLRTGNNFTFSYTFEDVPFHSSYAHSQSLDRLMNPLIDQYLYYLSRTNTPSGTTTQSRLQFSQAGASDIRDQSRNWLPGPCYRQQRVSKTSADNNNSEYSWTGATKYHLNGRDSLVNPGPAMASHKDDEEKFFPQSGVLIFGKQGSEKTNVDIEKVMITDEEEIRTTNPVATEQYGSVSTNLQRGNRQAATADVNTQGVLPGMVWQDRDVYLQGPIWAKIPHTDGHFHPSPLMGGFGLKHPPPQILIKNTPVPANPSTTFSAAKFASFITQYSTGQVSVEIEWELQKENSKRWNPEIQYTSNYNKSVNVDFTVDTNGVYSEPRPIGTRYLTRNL
T1 sequence (P03135 203-735, chain 3 of 3): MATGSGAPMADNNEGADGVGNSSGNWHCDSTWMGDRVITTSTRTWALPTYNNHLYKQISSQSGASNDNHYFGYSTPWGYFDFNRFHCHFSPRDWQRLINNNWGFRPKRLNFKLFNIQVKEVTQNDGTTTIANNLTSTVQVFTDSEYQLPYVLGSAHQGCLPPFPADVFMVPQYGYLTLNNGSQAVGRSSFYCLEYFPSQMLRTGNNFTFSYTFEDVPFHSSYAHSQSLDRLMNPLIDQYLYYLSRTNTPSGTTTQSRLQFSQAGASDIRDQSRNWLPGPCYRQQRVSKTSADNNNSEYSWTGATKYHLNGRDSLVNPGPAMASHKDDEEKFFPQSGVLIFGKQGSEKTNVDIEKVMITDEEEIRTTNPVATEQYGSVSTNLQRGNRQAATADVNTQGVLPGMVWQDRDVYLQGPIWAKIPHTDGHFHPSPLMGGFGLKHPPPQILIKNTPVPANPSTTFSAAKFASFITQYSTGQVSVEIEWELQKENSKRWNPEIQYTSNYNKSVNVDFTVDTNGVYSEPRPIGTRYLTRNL

One experiment concerns the target T1, VLP2 (virus-like particles of AAV2) (AAV2, UniProt P03135 1-735; P03135 1-598; P03135 1-533).
T1 construct: Empty AAV2 capsid; background says about 60 protein molecules, VP1:VP2:VP3 = 1:1:10; Immobilised on the ELISA plate
Nature of the experiment: ELISA on VLP2; binding after 43°C 15 min / untreated. (In an ELISA, binding on a coated surface is turned into a signal by an enzyme label.)
For B1, the “Residual activity [%]” value was 46%.
Still for that read-out and setting: to B2 belongs 76.1%; to B3, 62.3%; to B4, 56.9%.
Still for that read-out and setting: the value for B5 was 71.4%.
Regarding B6, the “Residual activity [%]” value came out at 56.1%.
Regarding B7, the “Residual activity [%]” value stood at 79.9%.
Same read-out and setting: to B8 belongs 56.6%; to B9, 80.9%; to B10, 77.4%.
The same measure, in the same setting: to B11 belongs 85.7%; to B12, 78.1%.
Same read-out and setting: to B13 belongs 80.3%.
With B14, the “Residual activity [%]” value was 69.6%.
Same read-out and setting: to B15 belongs 88.4%.
B16: the “Residual activity [%]” value was found to be 87.2%.
Same read-out and setting: to B17 belongs 77.6%.
Still for that read-out and setting: to B18 belongs 84.6%; to B19, 68.7%.
Still for that read-out and setting: to B20 belongs 48.7%; to B21, 84.3%.
In the case of B22, the “Residual activity [%]” value came out at 85.9%.
On the same count and under the same terms, to B23 belongs 65.7%; to B24, 74.4%; to B25, 63.2%.
The same measure, in the same setting: to B26 belongs 82.2%.
On the same count and under the same terms, to B27 belongs 49.3%; to B28, 66.7%.
On to B29, for which the “Residual activity [%]” value worked out at 81.3%.
Consider B30, for which the “Residual activity [%]” value came out at 88.2%.
Still for that read-out and setting: to B31 belongs 97%.
Still for that read-out and setting: the value for B32 was 86.4%; that for B33 was 80.9%.
Regarding B34, the “Residual activity [%]” value worked out at 80.6%.
Still for that read-out and setting: the value for B35 was 70.1%.
Still for that read-out and setting: the value for B36 was 63.3%.
Still for that read-out and setting: to B37 belongs 79%; to B38, 66.8%; to B39, 52.6%.
For the molecule B40, the “Residual activity [%]” value is 61.9%.
On the same count and under the same terms, the value for B41 was 65.5%; that for B42 was 83.7%; that for B43 was 73.4%.
Same read-out and setting: the value for B44 was 65.3%; that for B45 was 58.3%.
Still for that read-out and setting: to B46 belongs 57.7%.

A further experiment concerns the target T1, VLP2 (virus-like particles of AAV2). Nature of the experiment: ELISA on VLP2; binding after pH 10.0 41.2°C 15 min / untreated.
B47: the “Residual activity [%]” value amounted to 62.1%.
On to B48, for which the “Residual activity [%]” value was 67.6%.
Take B49: the “Residual activity [%]” value stood at 32.4%.
The same measure, in the same setting: the value for B50 was 40.3%; that for B51 was 35%; that for B52 was 63.8%.
